Experimental data from publication PMC11162321.

Key:
[1] = molecular target: F-actin (rabbit skeletal muscle α-actin, filamentous) (rabbit (Oryctolagus cuniculus)) (UniProt P68135); assay: single-molecule TIRF microscopy
[2] = molecular target: F-actin (rabbit skeletal muscle α-actin, filamentous) (rabbit (Oryctolagus cuniculus)) (UniProt P68135); assay: fluorescence polarisation
[3] = molecular target: F-actin (rabbit skeletal muscle α-actin, filamentous) (rabbit (Oryctolagus cuniculus)) (UniProt P68135); assay: cryo-EM structure
[4] = molecular target: F-actin (rabbit skeletal muscle α-actin, filamentous) (rabbit (Oryctolagus cuniculus)) (UniProt P68135); assay: other fluorescence titration

Chain of SipAC (SipA residues 425-685), unlabelled (P0CL52 425-685): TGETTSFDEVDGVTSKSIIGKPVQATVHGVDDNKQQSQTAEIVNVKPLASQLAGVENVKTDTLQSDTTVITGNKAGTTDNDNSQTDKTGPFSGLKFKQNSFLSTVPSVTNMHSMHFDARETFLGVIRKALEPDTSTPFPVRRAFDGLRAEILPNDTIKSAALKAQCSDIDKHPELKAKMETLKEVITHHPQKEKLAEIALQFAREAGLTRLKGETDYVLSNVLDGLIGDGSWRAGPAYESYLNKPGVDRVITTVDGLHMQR
Chain of FM-SipAC (SipA residues 425-685 labelled with fluorescein maleimide) (P0CL52 425-685): as above
Chain of Alexa-647-SipAC (SipA residues 425-685 labelled with Alexa Fluor 647 maleimide) (P0CL52 425-685): as above

Row | Substance | Kd [1] [nM] | koff [1] [s⁻¹] | Kd [2] [nM] | koff [2] [s⁻¹] | stoichiometry N (SipAC per actin) [3] | Kd [4] [nM]
1 | Alexa-647-SipAC (SipA residues 425-685 labelled with Alexa Fluor 647 maleimide) (from UniProt P0CL52 425-685) (domain or fragment) | 0.1 | 0.00038 |  |  |  | 
2 | FM-SipAC (SipA residues 425-685 labelled with fluorescein maleimide) (from UniProt P0CL52 425-685) (domain or fragment) |  |  | 0.9 | 0.00304 |  | 
3 | SipAC (SipA residues 425-685), unlabelled (from UniProt P0CL52 425-685) (domain or fragment) |  |  | 5 |  | 0.5 | 0.18
